Experimental data taken from article PMC4164012.

Molecular target: T1, recombinant E. coli L-asparaginase II (E. coli K-12 (JM109)), P00805
T1 chain: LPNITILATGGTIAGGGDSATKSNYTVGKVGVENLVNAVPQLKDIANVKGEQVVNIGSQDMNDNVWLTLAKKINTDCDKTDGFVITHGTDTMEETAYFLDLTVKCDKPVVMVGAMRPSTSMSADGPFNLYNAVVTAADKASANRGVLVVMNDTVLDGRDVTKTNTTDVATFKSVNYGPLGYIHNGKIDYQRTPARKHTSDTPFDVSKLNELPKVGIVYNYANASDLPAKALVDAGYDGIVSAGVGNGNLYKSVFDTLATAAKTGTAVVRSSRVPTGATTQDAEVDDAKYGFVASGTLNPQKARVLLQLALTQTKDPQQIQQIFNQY
Test: SEC; analytical HPLC gel filtration on Bio-Sep S-2000, 50 mM Tris-HCl, 10 mM NaCl, pH 7.5; 20 ul of 1.5 mg/ml injected, 1 ml/min; mass from calibration with marker proteins
Conditions: remark: other sources report otherwise

B1: recombinant E. coli L-asparaginase II, P00805 23-348 (enzyme)
chain: T1 chain
stoichiometry N: 4
